B1: IRS3-WT (dsDNA)
DNA 1: GCCACTTGCTTGTTTTGGAAGGAAAAT
DNA 2: ATTTTCCTTCCAAAACAAGCAAGTGGC
B2: IRS1-WT (dsDNA)
DNA 1: AGTGTGTTGGTATTTTTCCCTCAGTTC
DNA 2: GAACTGAGGGAAAAATACCAACACACT
B3: IRS2-WT (dsDNA)
DNA 1: ACATACAGGCTATTTTGTTGATTAAAC
DNA 2: GTTTAATCAACAAAATAGCCTGTATGT

Target: PARIS (ZNF746) (Homo sapiens, UniProt Q6NUN9 SEQ:1-644)
Assay: EMSA; competed by unlabeled WT oligo
Conditions: tags: GST; label: 32P

PARIS (ZNF746), sequence (Q6NUN9 whole entry): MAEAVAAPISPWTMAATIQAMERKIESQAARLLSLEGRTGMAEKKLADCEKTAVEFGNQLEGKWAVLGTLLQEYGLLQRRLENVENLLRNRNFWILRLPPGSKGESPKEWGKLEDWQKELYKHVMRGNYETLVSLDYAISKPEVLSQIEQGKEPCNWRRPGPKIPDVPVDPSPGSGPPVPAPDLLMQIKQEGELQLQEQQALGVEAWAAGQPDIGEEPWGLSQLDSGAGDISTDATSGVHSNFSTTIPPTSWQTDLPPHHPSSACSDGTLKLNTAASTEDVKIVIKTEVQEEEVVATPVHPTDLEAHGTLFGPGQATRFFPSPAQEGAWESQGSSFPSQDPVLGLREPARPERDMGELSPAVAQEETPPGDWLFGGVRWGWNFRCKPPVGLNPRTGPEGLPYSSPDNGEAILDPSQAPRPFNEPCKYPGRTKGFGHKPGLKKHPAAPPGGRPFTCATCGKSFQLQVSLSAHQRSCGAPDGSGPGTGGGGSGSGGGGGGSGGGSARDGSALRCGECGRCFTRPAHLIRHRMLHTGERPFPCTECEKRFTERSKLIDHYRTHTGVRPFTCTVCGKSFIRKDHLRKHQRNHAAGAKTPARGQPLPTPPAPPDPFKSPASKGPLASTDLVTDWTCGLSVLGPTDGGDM

Binding result, binds:
B1
B2
B3
